The target in the assay is cynomolgus monkey FGF19 (cynomolgus monkey). Nature of the assay: SPR. For orientation: SPR reads the build-up and loss of mass on a sensor chip optically.
Sequence of cynomolgus monkey FGF19 (cynomolgus monkey) (chain, as listed by the source): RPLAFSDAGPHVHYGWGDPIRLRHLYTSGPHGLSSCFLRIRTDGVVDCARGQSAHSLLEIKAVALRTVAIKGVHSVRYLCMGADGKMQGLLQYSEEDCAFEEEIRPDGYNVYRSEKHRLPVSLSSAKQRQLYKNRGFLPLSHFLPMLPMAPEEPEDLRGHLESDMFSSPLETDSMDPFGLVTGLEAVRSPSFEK

B1: G1A8 (anti-FGF19 human IgG1 antibody, affinity-improved from 31A3) (antibody, V domains shown)
VH: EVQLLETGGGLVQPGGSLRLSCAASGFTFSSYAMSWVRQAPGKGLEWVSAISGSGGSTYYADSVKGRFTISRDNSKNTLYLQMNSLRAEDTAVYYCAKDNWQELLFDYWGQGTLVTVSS
VL: QAGLTQPASVSGSPGQSITISCTGTSSDVGGYNYVSWYQQHPGKAPKLMIYDVSNRPSGVSDRFSGSKSGNTASLTISGLQTEDEADYYCSSWTRSSGLVFGGGTQLTVLG
As to B1, the Kd (usually the constant that tells how readily two partners part at equilibrium) came out at 1.63 nM.

The record behind these values is US20220041706A1 (published 2022).
